Data from US20240124560A1.

Key:
Assay in all cases: cell-based or functional assay
[1] = biological target: HIV-1 Env of NAC_92BR020 (HIV-1)
[2] = biological target: HIV-1 Env of NAC_SF162 (HIV-1)
[3] = biological target: HIV-1 Env of NAC_TRJO.58 (HIV-1)
[4] = biological target: HIV-1 Env of NIH-003_SC422661.8 (HIV-1)
[5] = biological target: HIV-1 Env of NIH-020_ZM197M.PB7 (HIV-1)
[6] = biological target: HIV-1 Env of NIH-022_ZM233M.PB6 (HIV-1)
[7] = biological target: HIV-1 Env of NIH-026_ZM135M.PL10a (HIV-1)
[8] = biological target: HIV-1 Env of NIH-036_Ce2010 F5 (HIV-1)
[9] = biological target: HIV-1 Env of NIH-046_1394C9G1(Rev.) (HIV-1)
[10] = biological target: HIV-1 Env of NIH-053_CNE52 (HIV-1)
[11] = biological target: HIV-1 Env of NIH-057_MS208.A1 (HIV-1)
[12] = biological target: HIV-1 Env of NIH-063_0330.v4.c3 (HIV-1)
[13] = biological target: HIV-1 Env of NIH-064_0260.v5.c1 (HIV-1)
[14] = biological target: HIV-1 Env of NIH-072_R3265.c06 (HIV-1)
[15] = biological target: HIV-1 Env of NIH-073_C3347.c11 (HIV-1)
[16] = biological target: HIV-1 Env of NIH-074_C4118.c09 (HIV-1)
[17] = biological target: HIV-1 Env of NIH-096_6952.v1.c20 (HIV-1)
[18] = biological target: HIV-1 Env of NIH-097_6811.v7.c18 (HIV-1)
[19] = biological target: HIV-1 Env of NIH-099_3301.v1.c24 (HIV-1)
[20] = biological target: HIV-1 Env of NIH-102_6545.v4.c1 (HIV-1)
[21] = biological target: HIV-1 Env of NIH-103_0815.v3.c3 (HIV-1)
[22] = biological target: HIV-1 Env of NIH-104_3103.v3.c10 (HIV-1)
[23] = biological target: HIV-1 Env of isolate NIH-089_3016.v5.c45 (HIV-1)
[24] = biological target: HIV-1 Env of pseudovirus NAC_92BR020 (HIV-1)
[25] = biological target: HIV-1 Env of pseudovirus NAC_WITO.33 (HIV-1)
[26] = biological target: HIV-1 Env of pseudovirus NIH-009_1006.11.C3.1601 (HIV-1)
[27] = biological target: HIV-1 Env of pseudovirus NIH-016_SC05.8C11.2344 (HIV-1)
[28] = biological target: HIV-1 Env of pseudovirus NIH-020_ZM197M.PB7 (HIV-1)
[29] = biological target: HIV-1 Env of pseudovirus NIH-021_ZM214M.PL15 (HIV-1)
[30] = biological target: HIV-1 Env of pseudovirus NIH-025_ZM109F.PB4 (HIV-1)
[31] = biological target: HIV-1 Env of pseudovirus NIH-030_HIV-0013095.2.11 (HIV-1)
[32] = biological target: HIV-1 Env of pseudovirus NIH-040_Ce703010054 2A2 (HIV-1)
[33] = biological target: HIV-1 Env of pseudovirus NIH-050_CNE21 (HIV-1)
[34] = biological target: HIV-1 Env of pseudovirus NIH-059_Q461ENVe2 (HIV-1)
[35] = biological target: HIV-1 Env of pseudovirus NIH-065_191955 A11 (HIV-1)
[36] = biological target: HIV-1 Env of pseudovirus NIH-069_C1080.c03 (HIV-1)
[37] = biological target: HIV-1 Env of pseudovirus NIH-071_R1166.c01 (HIV-1)
[38] = biological target: HIV-1 Env of pseudovirus NIH-078_BJOX015000.11.5 (HIV-1)
[39] = biological target: HIV-1 Env of pseudovirus NIH-081_BJOX028000.10.3 (HIV-1)
[40] = biological target: HIV-1 Env of pseudovirus NIH-082_X1193 c1 (clade G) (HIV-1)
[41] = biological target: HIV-1 Env of pseudovirus NIH-084_X1254 c3 (clade G) (HIV-1)
[42] = biological target: HIV-1 Env of pseudovirus NIH-085_X2088 c9 (clade G) (HIV-1)
[43] = biological target: HIV-1 Env of pseudovirus NIH-097_6811.v7.c18 (HIV-1)
[44] = biological target: HIV-1 Env of pseudovirus NIH-102_6545.v4.c1 (HIV-1)
[45] = biological target: HIV-1 Env of pseudovirus NIH-103_0815.v3.c3 (HIV-1)

4E10 (antibody) was tested, and the IC80 neutralization [1] was 13.5 µg/mL, the IC80 neutralization [2] was 8.26 µg/mL and the IC80 neutralization [3] was 11.6 µg/mL. The IC80 neutralization [4] was 11.1 µg/mL, the IC80 neutralization [5] was 1.08 µg/mL and the IC80 neutralization [6] was 4.99 µg/mL. It also gave an IC80 neutralization [7] of 0.936 µg/mL, an IC80 neutralization [8] of over 50 µg/mL and an IC80 neutralization [9] of 10.4 µg/mL. It also gave an IC80 neutralization [10] of 3.85 µg/mL, an IC80 neutralization [11] of 2.86 µg/mL and an IC80 neutralization [12] of 4.17 µg/mL. It also gave an IC80 neutralization [13] of 6.08 µg/mL, an IC80 neutralization [14] of 2 µg/mL and an IC80 neutralization [15] of 0.137 µg/mL. It also gave an IC80 neutralization [16] of 1.17 µg/mL, an IC80 neutralization [17] of 3.5 µg/mL and an IC80 neutralization [18] of 17 µg/mL. For the same substance, the IC80 neutralization [19] was over 50 µg/mL, the IC80 neutralization [20] was 13.3 µg/mL and the IC80 neutralization [21] was 6.31 µg/mL. It also gave an IC80 neutralization [22] of 32.4 µg/mL, an IC80 (µg/ml), TZM-bl pseudovirus neutralization [23] of 3.73 µg/mL and a neutralization IC50 [24] of 2.57 µg/mL. It also gave a neutralization IC50 [25] of 0.435 µg/mL, a neutralization IC50 [26] of 5.66 µg/mL and a neutralization IC50 [27] of 0.828 µg/mL. For the same substance, the neutralization IC50 [28] was 0.226 µg/mL, the neutralization IC50 [29] was 5.31 µg/mL and the neutralization IC50 [30] was 0.703 µg/mL. It also gave a neutralization IC50 [31] of 0.001 µg/mL, a neutralization IC50 [32] of 2.05 µg/mL and a neutralization IC50 [33] of 0.513 µg/mL. It also gave a neutralization IC50 [34] of 2.33 µg/mL, a neutralization IC50 [35] of 0.011 µg/mL and a neutralization IC50 [36] of 0.328 µg/mL. It also gave a neutralization IC50 [37] of 0.383 µg/mL, a neutralization IC50 [38] of 0.165 µg/mL and a neutralization IC50 [39] of 0.45 µg/mL. It also gave an IC50 (µg/ml), TZM-bl cell neutralization assay, pseudovirus [40] of 0.359 µg/mL, an IC50 (µg/ml), TZM-bl cell neutralization assay, pseudovirus [41] of 2.88 µg/mL and an IC50 (µg/ml), TZM-bl cell neutralization assay, pseudovirus [42] of over 50 µg/mL. The neutralization IC50 [43] was 2.74 µg/mL, the neutralization IC50 [44] was 2.35 µg/mL and the neutralization IC50 [45] was 1.2 µg/mL.

Substance PGZL1 (antibody) has an IC80 neutralization [1] of over 50 µg/mL, an IC80 neutralization [2] of 48.6 µg/mL and an IC80 neutralization [3] of over 50 µg/mL. The IC80 neutralization [4] was over 50 µg/mL, the IC80 neutralization [5] was 7.66 µg/mL and the IC80 neutralization [6] was 23.6 µg/mL. It also gave an IC80 neutralization [7] of 2.08 µg/mL, an IC80 neutralization [8] of over 50 µg/mL and an IC80 neutralization [9] of 34.3 µg/mL. It also gave an IC80 neutralization [10] of over 50 µg/mL, an IC80 neutralization [11] of 45.6 µg/mL and an IC80 neutralization [12] of over 50 µg/mL. For the same substance, the IC80 neutralization [13] was over 50 µg/mL, the IC80 neutralization [14] was over 50 µg/mL and the IC80 neutralization [15] was 0.263 µg/mL. For the same substance, the IC80 neutralization [16] was 33.3 µg/mL, the IC80 neutralization [17] was 4.7 µg/mL and the IC80 neutralization [18] was over 50 µg/mL. For the same substance, the IC80 neutralization [19] was over 50 µg/mL, the IC80 neutralization [20] was over 50 µg/mL and the IC80 neutralization [21] was over 50 µg/mL. The IC80 neutralization [22] was over 50 µg/mL, the IC80 (µg/ml), TZM-bl pseudovirus neutralization [23] was 10.6 µg/mL and the neutralization IC50 [24] was over 50 µg/mL. The neutralization IC50 [25] was 3.56 µg/mL, the neutralization IC50 [26] was 24.6 µg/mL and the neutralization IC50 [27] was 5.77 µg/mL. The neutralization IC50 [28] was 1.91 µg/mL, the neutralization IC50 [29] was 28.7 µg/mL and the neutralization IC50 [30] was 7.36 µg/mL. For the same substance, the neutralization IC50 [31] was 0.008 µg/mL, the neutralization IC50 [32] was 48.9 µg/mL and the neutralization IC50 [33] was 4.23 µg/mL. For the same substance, the neutralization IC50 [34] was 20.2 µg/mL, the neutralization IC50 [35] was 1.89 µg/mL and the neutralization IC50 [36] was 1.73 µg/mL. For the same substance, the neutralization IC50 [37] was 4.87 µg/mL, the neutralization IC50 [38] was 2.59 µg/mL and the neutralization IC50 [39] was 5.16 µg/mL. The IC50 (µg/ml), TZM-bl cell neutralization assay, pseudovirus [40] was 5.31 µg/mL, the IC50 (µg/ml), TZM-bl cell neutralization assay, pseudovirus [41] was 45.5 µg/mL and the IC50 (µg/ml), TZM-bl cell neutralization assay, pseudovirus [42] was over 50 µg/mL. The neutralization IC50 [43] was over 50 µg/mL, the neutralization IC50 [44] was over 50 µg/mL and the neutralization IC50 [45] was 18.7 µg/mL.

Substance VRC01 (antibody) has an IC80 neutralization [1] of 0.23 µg/mL, an IC80 neutralization [2] of 1.03 µg/mL and an IC80 neutralization [3] of 0.223 µg/mL. The IC80 neutralization [4] was 0.481 µg/mL, the IC80 neutralization [5] was 0.682 µg/mL and the IC80 neutralization [6] was 5.69 µg/mL. It also gave an IC80 neutralization [7] of 0.379 µg/mL, an IC80 neutralization [8] of 0.625 µg/mL and an IC80 neutralization [9] of 1.12 µg/mL. For the same substance, the IC80 neutralization [10] was 0.565 µg/mL, the IC80 neutralization [11] was 0.252 µg/mL and the IC80 neutralization [12] was 0.13 µg/mL. For the same substance, the IC80 neutralization [13] was 0.516 µg/mL, the IC80 neutralization [14] was 0.502 µg/mL and the IC80 neutralization [15] was 0.254 µg/mL. It also gave an IC80 neutralization [16] of 0.202 µg/mL, an IC80 neutralization [17] of 0.097 µg/mL and an IC80 neutralization [18] of 0.558 µg/mL. The IC80 neutralization [19] was 0.463 µg/mL, the IC80 neutralization [20] was over 50 µg/mL and the IC80 neutralization [21] was 0.07 µg/mL. It also gave an IC80 neutralization [22] of 6.21 µg/mL, an IC80 (µg/ml), TZM-bl pseudovirus neutralization [23] of 0.223 µg/mL and a neutralization IC50 [24] of 0.059 µg/mL. The neutralization IC50 [25] was 0.055 µg/mL, the neutralization IC50 [26] was 0.145 µg/mL and the neutralization IC50 [27] was 0.508 µg/mL. It also gave a neutralization IC50 [28] of 0.17 µg/mL, a neutralization IC50 [29] of 0.612 µg/mL and a neutralization IC50 [30] of 0.074 µg/mL. The neutralization IC50 [31] was 0.0002 µg/mL, the neutralization IC50 [32] was 0.139 µg/mL and the neutralization IC50 [33] was 0.212 µg/mL. It also gave a neutralization IC50 [34] of 0.195 µg/mL, a neutralization IC50 [35] of 0.091 µg/mL and a neutralization IC50 [36] of 1.4 µg/mL. The neutralization IC50 [37] was 0.488 µg/mL, the neutralization IC50 [38] was 0.06 µg/mL and the neutralization IC50 [39] was 0.141 µg/mL. It also gave an IC50 (µg/ml), TZM-bl cell neutralization assay, pseudovirus [40] of 0.098 µg/mL, an IC50 (µg/ml), TZM-bl cell neutralization assay, pseudovirus [41] of 0.039 µg/mL and an IC50 (µg/ml), TZM-bl cell neutralization assay, pseudovirus [42] of over 50 µg/mL. For the same substance, the neutralization IC50 [43] was 0.14 µg/mL, the neutralization IC50 [44] was over 50 µg/mL and the neutralization IC50 [45] was 0.019 µg/mL.
